The values that follow come from US12486514B2, “Method to specifically stimulate survival and expansion of genetically-modified immune cells” (National University of Singapore, priority 2018, dated 2025).

For data set [1], the system named is STAT5 Y647. Description: Epo signaling: STAT5 phosphorylation by flow cytometry in transduced T cells. The class given is cell-based, human. The settings on record: for Epo signaling (pSTAT5) after JAK inhibitor: concentration that abrogated IL-2 signal. The method, then:
To detect Epo signaling, cells were incubated in cytokine-free media for 2 hours before stimulated with Epo (0.01-10 IU/mL) at 37° C. for 15 minutes to 24 hours. In some experiments, cells were treated with 0.1-10 μM of ruxolitinib (Selleckchem) or 0.5-5 nM tofacitinib (Santa Cruz Biotechnology, Santa Cruz, CA) for 1 hour prior to Epo stimulation. […] In some experiments, the effects of human Epo were compared to those of murine Epo (Biolegend, San Diego, CA).
(In general: Flow cytometry measures light scatter and fluorescence of single cells or particles in a stream.)

Data set [2] concerns CD19+ Nalm6 ALL cells. Description: Xenograft: Nalm6-luciferase cells followed 2 days later by EpoRm-CAR T cells, with or without Epo. The data set is classed as in vivo, NSG mice. The settings on record: 100 IU Epo i.p. 3 times a week for 2 weeks. As to the method: In another model to test anti-leukemic activity of T cells, Nalm6 cells transduced with luciferase were injected i.v. (5×10^5 cells per mouse), followed 2 days later by T cells expressing EpoRm-CAR (2×10^7 cells per mouse, i.v.), while control mice received no T cells; some mice received Epo (100 IU) 3 times per week i.p. Tumor cell load was determined with the Xenogen IVIS-200 System (Perkin Elmer, Waltham, MA) after injecting aqueous D-luciferin potassium salt (150 μg/g body weight; Perkin Elmer) i.p. Luminescence was analyzed with Living Image 3.0 software. Mice were euthanized when the luminescence reached 1×10^10 photons per second, or earlier if there were physical signs warranting euthanasia.

Data set [3] has as its system T lymphocytes. Kind of data set: T cell survival/recovery in culture with or without Epo and IL-2. The data set is classed as cell-based, human. The method, then:
To assess cell survival, T cells were cultured in absence of exogenous cytokines, with or without Epo (4-10 IU/mL) in a flat bottom 96-well or 24-well plate (Cellstar). For cell proliferation, T cells were co-cultured with target cells (OP-1 cells) at 1:1 effector-to-target (E:T) ratio in a flat bottom 96-well plate; Epo (10 IU/mL) was added every two days. Target cells, irradiated (100 Gy) or treated with Streck cell preservative (Streck Laboratories, Omaha, NE) to inhibit growth, were added at the beginning of the cultures, and every 7 days thereafter. In some experiments, low dose (10 IU/mL) or high dose (100 IU/mL) IL-2 was added to the culture as well. The number of GFP+ T cells was measured by flow cytometry.

The test system of data set [4] is Jurkat cells. Kind of data set: Jurkat cell growth curves. The class given is cell-based, human.
The test system of data set [5] is T lymphocytes. Kind of data set: Cell cycle analysis (EdU DNA synthesis) after Epo stimulation. The settings on record: exposure to Epo for 24 hours. The class given is cell-based, human. The method, then: To determine the effect of Epo on cell cycle, cells were cultured in cytokine-free media for 3 days followed by stimulation with 10 IU/mL of Epo for 1 day. DNA synthesis was measured by Click-iT EdU AF647 Flow Cytometry Assay Kit (Thermo Fisher Scientific), and DNA content was measured with FxCycle Violet Stain (Thermo Fisher Scientific).

Data set [6] concerns Epo. Kind of data set: Binding of biotinylated Epo to transduced Jurkat cells. From the text: Biotinylated Epo was visualized with streptavidin-PE (Jackson ImmunoResearch).
Setting [7] is: EpoRm-CAR T cells, Epo 10 IU/mL.

With `N#CC[C@H](C1CCCC1)n1cc(-c2ncnc3[nH]ccc23)cn1` [ruxolitinib, reference compound], in data set [1] (setting [7]), the “Epo signaling (pSTAT5) after JAK inhibitor” value is recorded as “no effect”.
In the case of `C[C@@H]1CCN(C(=O)CC#N)C[C@@H]1N(C)c1ncnc2[nH]ccc12` [tofacitinib, reference compound], the “Epo signaling (pSTAT5) after JAK inhibitor” value in data set [1] (setting [7]) was “no effect”. For the same molecule, the “STAT5 Y647 phosphorylation caused by IL-2 after JAK inhibitor” value in data set [1] (EpoRm-CAR T cells, IL-2 100 IU/mL) is “completely abrogated”.
Take “Epo: recombinant human Epo (Thermo Fisher Scientific), glycoprotein cytokine”: in data set [2], the “effect of Epo injection on anti-leukemic activity” value is on record as “did not affect the anti-leukemic activity”. Also, the pSTAT5 levels induced result in data set [1] (EpoRm-CAR T cells, 1 IU/mL of Epo vs 50 IU/mL IL-2) was “significantly higher”.

B1: EpoRm: truncated mutant Epo receptor, codon 439 TGG (Trp) changed to TAG (stop), SEQ ID NO: 6, expressed in T cells (protein)
chain: MDHLGASLWPQVGSLCLLLAGAAWAPPPNLPDPKFESKAALLAARGPEELLCFTERLEDLVCFWEEAASAGVGPGNYSFSYQLEDEPWKLCRLHQAPTARGAVRFWCSLPTADTSSFVPLELRVTAASGAPRYHRVIHINEVVLLDAPVGLVARLADESGHVVLRWLPPPETPMTSHIRYEVDVSAGNGAGSVQRVEILEGRTECVLSNLRGRTRYTFAVRARMAEPSFGGFWSAWSEPVSLLTPSDLDPLILTLSLILVVILVLLTVLALLSHRRALKQKIWPGIPSPESEFEGLFTTHKGNFQLWLYQNDGCLWWSPCTPFTEDPPASLEVLSERCWGTMQAVEPGTDDEGPLLEPVGSEHAQDTYLVLDKWLLPRNPPSEDLPGPGGSVDIVAMDEGSEASSCSSALASKPSPEGASAASFEYTILDPSSQLLRP
As for B1, in data set [3] (7 days, Epo 10 IU/mL added to IL-2 100 IU/mL vs IL-2, 4 donors), the “recovery of T cells” value is “significantly higher”. Also, the “expansion of T cells” value in data set [3] (14 days, IL-2 100 IU/mL with Epo 10 IU/mL) is “performed better than EpoR cells”. In addition, the “cell numbers in culture” value in data set [3] (Epo added, absence of IL-2) is on record as “yielding higher cell numbers”. Further, in data set [4], the “long-term cell growth of Jurkat cells” value is recorded as “does not adversely affect”. In addition, in data set [1] (Epo 10 IU/mL, 15 minutes), the “functionality of EpoRm (pSTAT5) when expressed with CAR” value is “maintained”. The “durability of STAT5 phosphorylation” value in data set [1] (Epo 10 IU/mL, time course) is listed as “more durable”. In addition, the “DNA synthesis elicited by Epo” value in data set [5] is “stimulation was higher”.

B2: EpoR: wild-type human erythropoietin receptor (SEQ ID NO: 2) expressed in T cells by MSCV retroviral transduction (protein)
chain: MDHLGASLWPQVGSLCLLLAGAAWAPPPNLPDPKFESKAALLAARGPEELLCFTERLEDLVCFWEEAASAGVGPGNYSFSYQLEDEPWKLCRLHQAPTARGAVRFWCSLPTADTSSFVPLELRVTAASGAPRYHRVIHINEVVLLDAPVGLVARLADESGHVVLRWLPPPETPMTSHIRYEVDVSAGNGAGSVQRVEILEGRTECVLSNLRGRTRYTFAVRARMAEPSFGGFWSAWSEPVSLLTPSDLDPLILTLSLILVVILVLLTVLALLSHRRALKQKIWPGIPSPESEFEGLFTTHKGNFQLWLYQNDGCLWWSPCTPFTEDPPASLEVLSERCWGTMQAVEPGTDDEGPLLEPVGSEHAQDTYLVLDKWLLPRNPPSEDLPGPGGSVDIVAMDEGSEASSCSSALASKPSPEGASAASFEYTILDPSSQLLRPWTLCPELPPTPPHLKYLYLVVSDSGISTDYSSGDSQGAQGGLSDGPYSNPYENSLIPAAEPLPPSYVACS
As for B2, the survival in culture result in data set [3] (Epo 4 IU/mL, absence of exogenous IL-2) was “supported their survival in culture”. Also, in data set [4], the “long-term cell growth of Jurkat cells” value is given as “does not adversely affect”. Besides, in data set [6], the Epo binding entry is reported as “could bind Epo”.
